Data reported in the supplement of paper PMC9112550, “Optimization of the antimicrobial peptide Bac7 by deep mutational scanning” (BMC Biology, 2022).

These sequences were tested on Escherichia coli TOP10 (assay: shrunken log2 fold change of peptide-encoding DNA abundance (4.5 h post-induction vs induction); higher = less antimicrobial activity (less host growth inhibition)). Conditions: time post-induction: 4.5 h; library: site-saturation at positions 5, 18, 19, 20.
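Note: peptides expressed intracellularly from a pBAD plasmid library in pooled LB shake-flask culture, induced with 0.3% L-arabinose, DNA abundance read by NGS, three biological replicates, DESeq2 with apeglm shrinkage.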

| Sequence | shrunken log2 fold change |
| --- | --- |
| RRIRLRPPRLPRPRPRPPPHPRP | 1.13 |
| RRIRKRPPRLPRPRPRPTHHPRP | 0.897 |
| RRIRWRPPRLPRPRPRPYPGPRP | -0.0967 |
| RRIRVRPPRLPRPRPRPYGGPRP | -0.374 |
| RRIRKRPPRLPRPRPRPYCKPRP | 0.0355 |
| RRIRPRPPRLPRPRPRPEYWPRP | -0.035 |
| RRIRYRPPRLPRPRPRPSDTPRP | -1.27 |
| RRIRMRPPRLPRPRPRPKPRPRP | 1.63 |
| RRIRVRPPRLPRPRPRPMARPRP | 0.0955 |
| RRIRGRPPRLPRPRPRPMIGPRP | 0.263 |
| RRIRPRPPRLPRPRPRPVTCPRP | -0.237 |
| RRIRRRPPRLPRPRPRPMYPPRP | -0.197 |
| RRIRNRPPRLPRPRPRPQPSPRP | 0.186 |
| RRIRNRPPRLPRPRPRPMGTPRP | -0.0967 |
| RRIRLRPPRLPRPRPRPNQMPRP | -0.437 |
| RRIRDRPPRLPRPRPRPCIEPRP | -0.158 |
| RRIRPRPPRLPRPRPRPYVQPRP | -0.147 |
| RRIRLRPPRLPRPRPRPVYAPRP | 0.00563 |
| RRIRARPPRLPRPRPRPYLWPRP | 0.134 |
| RRIRGRPPRLPRPRPRPLKHPRP | 0.0581 |
| RRIRKRPPRLPRPRPRPMTLPRP | -0.0281 |
| RRIRDRPPRLPRPRPRPTVGPRP | 0.351 |
| RRIRCRPPRLPRPRPRPYPEPRP | -0.0664 |
| RRIRARPPRLPRPRPRPHHHPRP | -0.469 |
| RRIRQRPPRLPRPRPRPCDQPRP | 0.0849 |

| Sequence | shrunken log2 fold change |
| --- | --- |
| RRIRSRPPRLPRPRPRPTSPPRP | 0.742 |
| RRIRERPPRLPRPRPRPYASPRP | -0.303 |
| RRIRCRPPRLPRPRPRPNQNPRP | -0.437 |
| RRIRDRPPRLPRPRPRPEKYPRP | 0.0312 |
| RRIRWRPPRLPRPRPRPWHYPRP | -0.0627 |
| RRIRARPPRLPRPRPRPNGPPRP | 0.149 |
| RRIRWRPPRLPRPRPRPCGDPRP | 0.183 |
| RRIRNRPPRLPRPRPRPHGYPRP | -0.066 |
| RRIRERPPRLPRPRPRPMQHPRP | -0.04 |
| RRIRCRPPRLPRPRPRPNPYPRP | -0.44 |
| RRIRCRPPRLPRPRPRPEREPRP | 0.108 |
| RRIRERPPRLPRPRPRPAEDPRP | 0.0107 |
| RRIRVRPPRLPRPRPRPQIFPRP | -0.0538 |
| RRIRNRPPRLPRPRPRPPRHPRP | 0.271 |
| RRIRERPPRLPRPRPRPAMWPRP | 0.293 |
| RRIRQRPPRLPRPRPRPFYHPRP | -0.368 |
| RRIRCRPPRLPRPRPRPRHVPRP | -0.0723 |
| RRIRLRPPRLPRPRPRPESMPRP | 0.191 |
| RRIRARPPRLPRPRPRPSASPRP | 0.167 |
| RRIRFRPPRLPRPRPRPSMSPRP | -0.394 |
| RRIRNRPPRLPRPRPRPCITPRP | -0.049 |
| RRIRQRPPRLPRPRPRPHVQPRP | -0.46 |
| RRIRKRPPRLPRPRPRPVCKPRP | 0.0228 |
| RRIRCRPPRLPRPRPRPWTGPRP | -0.422 |
| RRIRDRPPRLPRPRPRPILSPRP | -0.216 |

| Sequence | shrunken log2 fold change |
| --- | --- |
| RRIRLRPPRLPRPRPRPRVIPRP | 0.0615 |
| RRIRHRPPRLPRPRPRPRNRPRP | 0.672 |
| RRIRTRPPRLPRPRPRPTQEPRP | -0.0182 |
| RRIRERPPRLPRPRPRPVFCPRP | -0.0447 |
| RRIRQRPPRLPRPRPRPLNPPRP | -0.303 |
| RRIRGRPPRLPRPRPRPGQTPRP | 0.405 |
| RRIRHRPPRLPRPRPRPDCRPRP | -0.0597 |
| RRIRSRPPRLPRPRPRPPRFPRP | 0.378 |
| RRIRQRPPRLPRPRPRPSMLPRP | -0.522 |
| RRIRNRPPRLPRPRPRPVDQPRP | -0.213 |
| RRIRGRPPRLPRPRPRPWGGPRP | 0.808 |
| RRIRRRPPRLPRPRPRPASSPRP | -0.0219 |
| RRIRIRPPRLPRPRPRPEPPPRP | 0.254 |
| RRIRYRPPRLPRPRPRPTKSPRP | -0.517 |
| RRIRSRPPRLPRPRPRPAWFPRP | 0.171 |
| RRIRNRPPRLPRPRPRPWGTPRP | 0.0962 |
| RRIRARPPRLPRPRPRPRHSPRP | -0.00589 |
| RRIRNRPPRLPRPRPRPYQIPRP | -0.0282 |
| RRIRIRPPRLPRPRPRPSHIPRP | -0.879 |
| RRIRQRPPRLPRPRPRPHSIPRP | 0.0425 |
| RRIRGRPPRLPRPRPRPHLPPRP | 0.0386 |
| RRIRFRPPRLPRPRPRPPNIPRP | -0.185 |
| RRIRHRPPRLPRPRPRPAMGPRP | -0.336 |
| RRIRIRPPRLPRPRPRPGTTPRP | 0.252 |
| RRIRFRPPRLPRPRPRPGCTPRP | -0.116 |

| Sequence | shrunken log2 fold change |
| --- | --- |
| RRIRCRPPRLPRPRPRPHVSPRP | -0.37 |
| RRIRHRPPRLPRPRPRPSSLPRP | -0.153 |
| RRIRVRPPRLPRPRPRPHPYPRP | -1.08 |
| RRIRFRPPRLPRPRPRPQEWPRP | -0.149 |
| RRIRGRPPRLPRPRPRPQSFPRP | 0.218 |
| RRIRKRPPRLPRPRPRPIWKPRP | -0.00277 |
| RRIRDRPPRLPRPRPRPAEWPRP | 0.0244 |
| RRIRVRPPRLPRPRPRPISYPRP | -0.158 |
| RRIRHRPPRLPRPRPRPTAIPRP | -0.183 |
| RRIRHRPPRLPRPRPRPIGKPRP | 0.0218 |
| RRIRERPPRLPRPRPRPFLKPRP | -0.0233 |
| RRIRHRPPRLPRPRPRPLTHPRP | -1.14 |
| RRIRMRPPRLPRPRPRPNGVPRP | 0.194 |
| RRIRVRPPRLPRPRPRPKRRPRP | -0.0117 |
| RRIRERPPRLPRPRPRPYIQPRP | -0.184 |
| RRIRHRPPRLPRPRPRPWRIPRP | -0.0502 |
| RRIRDRPPRLPRPRPRPILHPRP | -0.0215 |
| RRIRYRPPRLPRPRPRPVSAPRP | -0.332 |
| RRIRQRPPRLPRPRPRPPHYPRP | 0.37 |
| RRIRNRPPRLPRPRPRPSLMPRP | 0.0538 |
| RRIRTRPPRLPRPRPRPALIPRP | 0.0272 |
| RRIRHRPPRLPRPRPRPCVMPRP | -0.239 |
| RRIRKRPPRLPRPRPRPQDFPRP | 0.00806 |
| RRIRLRPPRLPRPRPRPWDAPRP | 0.135 |
| RRIRNRPPRLPRPRPRPIRWPRP | 0.18 |

| Sequence | shrunken log2 fold change |
| --- | --- |
| RRIRHRPPRLPRPRPRPINVPRP | -1.14 |
| RRIRHRPPRLPRPRPRPGPVPRP | 0.26 |
| RRIRRRPPRLPRPRPRPMFQPRP | 0.155 |
| RRIRPRPPRLPRPRPRPVCPPRP | 0.0159 |
| RRIRCRPPRLPRPRPRPELSPRP | 0.52 |
| RRIRARPPRLPRPRPRPHFLPRP | -0.127 |
| RRIRSRPPRLPRPRPRPYDFPRP | -0.195 |
| RRIRIRPPRLPRPRPRPHNSPRP | -0.132 |
| RRIRVRPPRLPRPRPRPPKRPRP | -0.193 |
| RRIRDRPPRLPRPRPRPIEPPRP | -0.0685 |
| RRIRIRPPRLPRPRPRPQFCPRP | -0.32 |
| RRIRIRPPRLPRPRPRPRRIPRP | -0.677 |
| RRIRPRPPRLPRPRPRPLTTPRP | 0.135 |
| RRIRNRPPRLPRPRPRPNMLPRP | -0.772 |
| RRIRIRPPRLPRPRPRPWWKPRP | -0.102 |
| RRIRTRPPRLPRPRPRPNSVPRP | -0.0853 |
| RRIRPRPPRLPRPRPRPYHVPRP | -0.199 |
| RRIRRRPPRLPRPRPRPQKVPRP | 0.234 |
| RRIRYRPPRLPRPRPRPMCNPRP | -1.82 |
| RRIRNRPPRLPRPRPRPVDEPRP | 0.0158 |
| RRIRIRPPRLPRPRPRPDLRPRP | -0.0147 |
| RRIRWRPPRLPRPRPRPWEYPRP | -0.0716 |
| RRIRVRPPRLPRPRPRPSWEPRP | -0.0979 |
| RRIRGRPPRLPRPRPRPMPQPRP | 0.255 |
| RRIRWRPPRLPRPRPRPRCFPRP | 0.398 |

| Sequence | shrunken log2 fold change |
| --- | --- |
| RRIRTRPPRLPRPRPRPCWSPRP | 0.499 |
| RRIRIRPPRLPRPRPRPAMYPRP | -0.733 |
| RRIRARPPRLPRPRPRPTCFPRP | 0.57 |
| RRIRMRPPRLPRPRPRPMYTPRP | -0.71 |
| RRIRLRPPRLPRPRPRPREQPRP | 0.134 |
| RRIRERPPRLPRPRPRPWDHPRP | -0.204 |
| RRIRPRPPRLPRPRPRPICQPRP | -0.0543 |
| RRIRFRPPRLPRPRPRPRETPRP | 0.0137 |
| RRIRVRPPRLPRPRPRPDFMPRP | -0.0875 |
| RRIRYRPPRLPRPRPRPVMVPRP | -0.139 |
| RRIRFRPPRLPRPRPRPKIVPRP | -0.207 |
| RRIRIRPPRLPRPRPRPPRLPRP | 0.256 |
| RRIRHRPPRLPRPRPRPTCGPRP | 0.0685 |
| RRIRVRPPRLPRPRPRPWGVPRP | -0.15 |
| RRIRMRPPRLPRPRPRPKKDPRP | 0.942 |
| RRIRVRPPRLPRPRPRPERQPRP | 0.514 |
| RRIRNRPPRLPRPRPRPKFCPRP | -0.198 |
| RRIRERPPRLPRPRPRPPIPPRP | 0.281 |
| RRIRHRPPRLPRPRPRPWDFPRP | -0.0612 |
| RRIRGRPPRLPRPRPRPVHCPRP | 0.0385 |
| RRIRHRPPRLPRPRPRPYERPRP | -0.00674 |
| RRIRARPPRLPRPRPRPCLRPRP | 0.0978 |
| RRIRRRPPRLPRPRPRPNPEPRP | 0.302 |
| RRIRKRPPRLPRPRPRPIWLPRP | 0.00836 |
| RRIRERPPRLPRPRPRPASGPRP | 0.133 |
